Molecular target: scFv of the anti-GLA antibody, forcibly expressed on M1 cells (Transfectant)
Assay: cell-based or functional assay

scFv of the anti-GLA antibody, forcibly expressed on M1 cells (Transfectant), sequence (scFv, as listed by the source): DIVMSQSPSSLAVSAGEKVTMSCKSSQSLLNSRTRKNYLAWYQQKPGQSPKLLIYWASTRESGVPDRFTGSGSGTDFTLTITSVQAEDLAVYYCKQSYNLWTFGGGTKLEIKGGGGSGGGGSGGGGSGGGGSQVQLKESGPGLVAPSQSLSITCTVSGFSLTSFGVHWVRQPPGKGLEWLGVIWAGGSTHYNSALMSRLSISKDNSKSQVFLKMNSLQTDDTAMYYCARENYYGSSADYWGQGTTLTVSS

“CD19 CAR expressed on human T cells (CD19 CAR-T cells)” gave a cell viability rate of M1 cells (in vitro killing assay, control co-culture) of 66.9%.

Reference: patent US20220403002A1
